# Values of other authors, collected in article PMC9971567.
# pKd: −log10 of the molar value.
# Target: Intimin C terminus (Escherichia coli) (UniProt P19809)
# Chain of UniProt P19809 (P19809 660-939): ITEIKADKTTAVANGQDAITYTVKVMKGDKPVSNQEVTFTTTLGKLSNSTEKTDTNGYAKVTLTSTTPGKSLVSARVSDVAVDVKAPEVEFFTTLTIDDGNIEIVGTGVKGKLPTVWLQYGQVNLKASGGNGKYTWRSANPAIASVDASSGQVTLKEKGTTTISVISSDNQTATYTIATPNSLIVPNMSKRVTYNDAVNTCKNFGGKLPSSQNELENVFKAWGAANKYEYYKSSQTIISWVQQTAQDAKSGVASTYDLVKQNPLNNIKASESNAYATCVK
substance,measurement,value
Tir central loop (from UniProt B7UM99),pKd,8.00
